Assay results taken from article PMC10397247.

Assays:
Test in all cases: two-hybrid library CCNG1;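 also: natural log of median RNA to DNA barcode read ratio; higher means stronger binding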
[1] = target: T1, 4H797-bN
T1 chain: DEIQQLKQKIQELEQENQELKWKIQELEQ

[2] = target: T2, 4H855-bN
T2 chain: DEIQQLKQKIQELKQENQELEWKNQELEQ

[3] = target: T3, 4H883-bN
T3 chain: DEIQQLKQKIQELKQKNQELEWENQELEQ

[4] = target: T4, 4H908-bN
T4 chain: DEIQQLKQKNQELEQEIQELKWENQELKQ

[5] = target: T5, 4H918-bN
T5 chain: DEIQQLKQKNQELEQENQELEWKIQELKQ

[6] = target: T6, 4H953-bN
T6 chain: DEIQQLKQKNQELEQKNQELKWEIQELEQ

[7] = target: T7, 4H967-bN
T7 chain: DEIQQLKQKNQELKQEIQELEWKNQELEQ

[8] = target: T8, 4H968-bN
T8 chain: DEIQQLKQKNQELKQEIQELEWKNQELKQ

[9] = target: T9, P12bH1
T9 chain: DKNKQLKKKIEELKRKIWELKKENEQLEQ

[10] = target: T10, P6bH1
T10 chain: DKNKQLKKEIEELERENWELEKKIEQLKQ

Work on DEIQQLKQKIQELEQENQELKWKIQELEQ [4H797-bN] yielded an interaction score [1] of 0.569, an interaction score [2] of 0.668 and an interaction score [3] of -1.53. It also gave an interaction score [4] of -0.753, an interaction score [5] of 1.02 and an interaction score [6] of -0.455. It also gave an interaction score [7] of -0.535, an interaction score [8] of -1.06 and an interaction score [9] of -0.66. It also gave an interaction score [10] of 0.0343.
